Data on two molecules can be found in paper PMC6733935, “A convenient and efficient total solid-phase synthesis of DOTA-functionalized tumor-targeting peptides for PET imaging of cancer” (EJNMMI Research, 2019).

The target in series [1] is T1, BN/GRP receptor-positive MCF7 human breast cancer cells (Homo sapiens, UniProt P30550).
T1 construct: BN/GRP receptor-positive MDA-MB-231, MCF7, T47D human breast cancer, and PC3 human prostate cancer lines; host or cells: MDA-MB-231, MCF7, T47D (human breast cancer), PC3 (human prostate cancer); intact cells
Briefly: Saturation binding assay on MCF7 cells. The conditions noted are these: n = 3-5 experiments; for Bmax (apparent number of binding sites per cell): SD < 15%; for Kd: ~300,000 cells, 0.1-25 nM radiopeptide, 60 min, room temperature, mean ± SD. Here is the method:
(§1) The cell binding of ^68Ga-radiolabeled peptides into BN/GRP receptor-positive MDA-MB-231, MCF7, T47D human breast cancer, and PC3 human prostate cancer lines (American Type Culture Collection, Rockville, MD, USA) was performed according to the method described previously. In brief, ∼ 300,000 cells (in 300 μL in low-serum media) were incubated with various amounts of radiopeptides, ranging between 0.1 and 25 nM of peptide (prepared from the serial dilutions of HPLC-purified radiopeptides), in duplicate for 60 min at room temperature. The initial concentrations of ^68Ga-labeled peptides were determined according to a well-established HPLC technique with simultaneous detection by UV absorbance. As the amount of BN peptide in the reaction mixture was too small to be detected by UV absorption at 220 nm, the radioactive peptide chromatograms from the HPLC analysis were compared (with UV chromatograms) with those of known concentrations of the corresponding nonradioactive peptides for the mass determination. Incubation was terminated by dilution with cold saline (300 μL) and the cells were pelleted by centrifugation. The cell pellets was then rapidly washed with cold saline to remove any unbound peptide and centrifuged to collect supernatants. Radioactivity in the cell pellet and the washings was measured in a γ-counter. Non-specific binding was determined in the presence of ~ 200-fold molar excess of unlabeled BN peptide. Specific binding is calculated by subtracting the non-specifically bound radioactivity from that of the total binding. The dissociation constant (Kd) was calculated using a plot of cell bound activity versus the concentration of the radioligand using GraphPad Prism software (GraphPad Software Inc., San Diego, CA, USA).

Series [2] in a line: Radio-HPLC retention time as reflection of lipophilicity. The class given is physicochemical. To be noted: chromatographic, econosphere C18 (10 μm, 250 × 4.6 mm), 0.1% TFA water/acetonitrile, 5 to 95% B over 30 min, 1.1 mL/min; radio detection; used as reflection of lipophilicity. Here is the method:
The HPLC analysis and purification of the peptides were performed on a Shimadzu HPLC system using econosphere C18 reversed-phase column (10 μm, 250 × 4.6 mm). For all HPLC experiments, a gradient system of 0.1% (v/v) TFA in water (solvent A) and 0.1% (v/v) TFA in acetonitrile (solvent B) at a flow rate of 1.1 mL/min was used. The HPLC gradient began with a solvent composition of 95% A and 5% B from 0 to 2.5 min followed by a linear gradient of 95% A and 5% B to 5% A and 95% B over 30 min. The gradient remained at this position for 3 min before switching back to 95% A and 5% B for another 7 min. The major peak isolated and the acetonitrile was then slowly evaporated under a stream of nitrogen gas. Radiochemical purity was estimated by evaluating radioactivity peaks eluted for each ^68Ga-labeled peptide from the HPLC column and calculating the area under the peak (ROI). The main peak of each radiopeptide was isolated and reconstituted in sterile saline for in vitro and in vivo experiments. Radiolabeling of DOTA-coupled BN peptides with ^68Ga was accomplished simply by mixing ~ 20 μg BN peptide with sodium acetate buffer and ^68GaCl3 followed by heating to complete the labeling reaction. By this facile method, a high and reproducible radiolabeling of peptides with ^68Ga was achieved (up to 95%), with a specific radioactivity of greater than 250 Ci/mmol. […] A radiolabeling efficiency of greater than 90% was obtained in all cases, and it ranged between 90 and 95%. […] RP-HPLC retention times of the major peaks, ranging from 18.3 to 20.3 min, reflected slightly variable lipophilicity of these ^68Ga-complexes (Table 1).

Series [3] has as its target T2, BN/GRP receptor-positive T47D human breast cancer cells (Homo sapiens, UniProt P30550).
T2 construct: BN/GRP receptor-positive MDA-MB-231, MCF7, T47D human breast cancer, and PC3 human prostate cancer lines; host or cells: MDA-MB-231, MCF7, T47D (human breast cancer), PC3 (human prostate cancer); intact cells
Kind of series: Saturation binding assay on T47D cells. The conditions noted are these: n = 3-5 experiments; for Bmax (apparent number of binding sites per cell): SD < 15%; for Kd: ~300,000 cells, 0.1-25 nM radiopeptide, 60 min, room temperature, mean ± SD. The method, then:
as §1

Series [4] has as its target T3, BN/GRP receptor-positive PC3 human prostate cancer cells (Homo sapiens, UniProt P30550).
T3 construct: BN/GRP receptor-positive MDA-MB-231, MCF7, T47D human breast cancer, and PC3 human prostate cancer lines; host or cells: MDA-MB-231, MCF7, T47D (human breast cancer), PC3 (human prostate cancer); intact cells
Briefly: Saturation binding assay on PC3 cells. To be noted: n = 3-5 experiments; for Bmax (apparent number of binding sites per cell): SD < 15%; for Kd: ~300,000 cells, 0.1-25 nM radiopeptide, 60 min, room temperature, mean ± SD. The method, then:
as §1

A further series has as its system MDA-MB-231 tumors. Briefly: in vivo. It counts as in vivo, nude mice. The conditions noted are these: for Uptake in Liver / Uptake in Lungs / Radioactivity in Urine + bladder / Uptake in Blood / Uptake in Intestines (measured without their contents) / Uptake in Kidneys / Uptake in Muscle / Uptake in Pancreas / Uptake in Spleen / Uptake in Stomach: female, nude, mouse, in vivo; for Uptake in Tumor: nude mice with MDA-MB-231 tumors, mean ± SD, n = 3-5. The method, then:
BN/GRP receptor-positive MDA-MB-231 and PC3 cell lines (American Type Culture Collection, Rockville, USA) were grown as monolayers at 37 °C in a humidified atmosphere containing RPMI-1640 culture media with 10% fetal bovine serum (FBS) in tissue culture flasks. Twenty-four hours prior to conducting the tumor implantation, the media was replaced with RPMI-1640/10% FBS. The cells were grown to 80-90% confluency and harvested by trypsinization. After centrifugation, about 50 million cells were suspended in 1 mL media for implantation into mice. To prepare cells for inoculation, MDA-MB-231 or PC3 cancer cells with media were centrifuged, the media decanted, and the cell pellet was mixed with phosphate-buffered saline (PBS) to reach a concentration of approximately 5 million cells per 100 μL PBS. Human MDA-MB-231 breast cancer xenografts female mouse models were used for in vivo tumor-targeting experiments. For the implantation of tumor xenografts, approximately five million MDA-MB-231 cells in suspension of 100 μL sterile PBS were injected subcutaneously into the left thigh of each mouse. Tumors were allowed to grow for 4-6 weeks by which tumors had reached weights of 200-300 mg. After sufficient growth of tumors, animals were injected with 20-30 μCi of the radiotracers and the animals were sacrificed at specified time points. The uptake of ^68Ga-radiolabeled peptides in the tumors and other major body organs was calculated by γ-counting as described above.

Square brackets hold non-standard residues; d marks the D form. Peptide text beside a SMILES is read from it. * marks the point of attachment. DOTA = O=C(O)CN1CCN(CC(=O)O)CCN(CC(=O)*)CCN(CC(=O)O)CC1; Cha = N[C@@H](CC1CCCCC1)C(=O)O; Nle = CCCC[C@H](N)C(=O)O; Ahx = NCCCCCC(=O)O

In general, Kd refers to the constant that tells how readily two partners part at equilibrium. A low value points to tighter binding.

Take `CCCC[C@H](NC(=O)[C@H](Cc1c[nH]cn1)NC(=O)[C@H](CC1CCCCC1)NC(=O)[C@@H](NC(=O)[C@H](C)NC(=O)[C@H](Cc1c[nH]c2ccccc12)NC(=O)[C@H](CCC(N)=O)NC(=O)[C@H](CS)NC(=O)CNC(=O)CNC(=O)CCCCCNC(=O)CN1CCN(CC(=O)O)CCN(CC(=O)O)CCN(CC(=O)O)CC1)C(C)C)C(=O)N[C@@H](CCSC)C(N)=O` [^68Ga-DOTA-Ahx-BN Cyclen, metal not drawn] ({DOTA-Ahx}-GGCQWAV[Cha]H[Nle]M-NH2): the “Bmax (apparent number of binding sites per cell)” value in series [1] is 6.90 × 10^5 sites/cell; in series [3], 4.75 × 10^5 sites/cell; in series [4], 5.29 × 10^5 sites/cell. The Kd in series [1] was 9.8 ± 1.64 nM; in series [3] it was 15.3 ± 3.42 nM; in series [4], 9.89 ± 1.56 nM. For the same molecule, in series [2], the “Radio-HPLC tR” value is given as 18.3 min. Moreover, in the series on MDA-MB-231 tumors (MDA-MB-231 tumors, nude mice, 1 h vs 2 h p.i.), the “washout from the tumors over 2 h” value worked out at 28%. Moreover, the “Uptake in Liver” value in the series on MDA-MB-231 tumors (1 h) worked out at 1.02 ± 0.16 % ID/g; in the series with MDA-MB-231 tumors (2 h), 0.91 ± 0.10 % ID/g. Also, the “Uptake in Lungs” value in the series on MDA-MB-231 tumors (1 h) stood at 0.55 ± 0.10 % ID/g. Further, the “Uptake in Tumor” value in the series on MDA-MB-231 tumors (1 h p.i.) came out at 2.32 ± 0.25 % ID/g; with MDA-MB-231 tumors (2 h p.i.) it was 1.65 ± 0.19 % ID/g.

Turning to `CCCC[C@H](NC(=O)[C@H](Cc1c[nH]cn1)NC(=O)[C@H](CC1CCCCC1)NC(=O)[C@@H](NC(=O)[C@H](C)NC(=O)[C@H](Cc1c[nH]c2ccccc12)NC(=O)[C@H](CCC(N)=O)NC(=O)[C@H](CS)NC(=O)CNC(=O)CNC(=O)CCCCCNC(=O)CN1CCN(CC(=O)O)CCN(CC(=O)O)CCN(CC(=O)O)CC1)C(C)C)C(=O)N[C@@H](CCSC)C(N)=O` [^68Ga-DOTA-Ahx-BN Tris-, metal not drawn] ({DOTA-Ahx}-GGCQWAV[Cha]H[Nle]M-NH2), in series [1], the “Bmax (apparent number of binding sites per cell)” value is 6.22 × 10^5 sites/cell and binding was characterised by a dissociation constant (Kd) of 9.32 ± 1.5 nM. The “Radio-HPLC tR” value in series [2] is 18.3 min. Also, in series [3], the “Bmax (apparent number of binding sites per cell)” value is on record as 4.91 × 10^5 sites/cell and the Kd amounted to 14.5 ± 2.4 nM. Further, in series [4], the “Bmax (apparent number of binding sites per cell)” value was 4.88 × 10^5 sites/cell and the Kd was 10.4 ± 1.71 nM. Moreover, in the series with MDA-MB-231 tumors (1 h), the “Radioactivity in Urine + bladder” value is recorded as 66.0 ± 6.60 % injected dose per tissue, the “Uptake in Blood” value stood at 0.70 ± 0.12 % ID/g, the “Uptake in Intestines (measured without their contents)” value is reported as 0.89 ± 0.12 % ID/g and the “Uptake in Kidneys” value is on record as 4.85 ± 0.43 % ID/g. Also, in the series with MDA-MB-231 tumors (1 h), the “Uptake in Liver” value was 2.20 ± 0.33 % ID/g, the “Uptake in Lungs” value is 1.86 ± 0.14 % ID/g, the “Uptake in Muscle” value worked out at 0.28 ± 0.04 % ID/g and the “Uptake in Pancreas” value was found to be 1.30 ± 0.18 % ID/g. Moreover, in the series with MDA-MB-231 tumors (1 h), the “Uptake in Spleen” value stood at 0.33 ± 0.02 % ID/g and the “Uptake in Stomach” value came to 0.87 ± 0.11 % ID/g. Moreover, in the series on MDA-MB-231 tumors (2 h), the “Radioactivity in Urine + bladder” value was 68.0 ± 7.55 % injected dose per tissue, the “Uptake in Blood” value stood at 0.60 ± 0.09 % ID/g, the “Uptake in Intestines (measured without their contents)” value was determined as 0.50 ± 0.10 % ID/g and the “Uptake in Kidneys” value stood at 3.74 ± 0.24 % ID/g. For the same molecule, in the series with MDA-MB-231 tumors (2 h), the “Uptake in Liver” value was 1.83 ± 0.24 % ID/g, the “Uptake in Lungs” value is given as 0.61 ± 0.07 % ID/g, the “Uptake in Muscle” value came out at 0.20 ± 0.02 % ID/g and the “Uptake in Pancreas” value came to 0.75 ± 0.11 % ID/g. For the same molecule, in the series with MDA-MB-231 tumors (2 h), the “Uptake in Spleen” value was 0.16 ± 0.01 % ID/g and the “Uptake in Stomach” value stood at 0.60 ± 0.07 % ID/g. Besides, the “Uptake in Tumor” value in the series on MDA-MB-231 tumors (1 h p.i.) stood at 2.09 ± 0.33 % ID/g. The “Uptake in Tumor” value in the series on MDA-MB-231 tumors (2 h p.i.) was determined as 1.62 ± 0.18 % ID/g.
